# Laboratory results taken from patent publication US20030143656.
# T1: T308tide
# T1 chain: KTFCGTPEYLAPEVRR
# T2: D978A-PIFtide
# T2 chain: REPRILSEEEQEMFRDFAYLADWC
# T3: GST-SGK1 (lacking the N-terminal 60 amino acids), O00141
# T3 chain: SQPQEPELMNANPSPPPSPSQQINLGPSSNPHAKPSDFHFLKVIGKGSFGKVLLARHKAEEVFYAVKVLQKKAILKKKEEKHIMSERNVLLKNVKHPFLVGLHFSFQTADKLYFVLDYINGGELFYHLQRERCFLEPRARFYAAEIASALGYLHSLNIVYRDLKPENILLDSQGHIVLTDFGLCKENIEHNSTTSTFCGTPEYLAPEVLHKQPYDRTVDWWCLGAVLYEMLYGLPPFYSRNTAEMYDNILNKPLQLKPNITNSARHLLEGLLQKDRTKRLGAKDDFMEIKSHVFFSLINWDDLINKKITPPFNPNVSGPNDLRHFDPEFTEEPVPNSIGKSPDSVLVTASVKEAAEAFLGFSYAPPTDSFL
# T4: GST-?PH-PKBα, P31749
# T4 chain: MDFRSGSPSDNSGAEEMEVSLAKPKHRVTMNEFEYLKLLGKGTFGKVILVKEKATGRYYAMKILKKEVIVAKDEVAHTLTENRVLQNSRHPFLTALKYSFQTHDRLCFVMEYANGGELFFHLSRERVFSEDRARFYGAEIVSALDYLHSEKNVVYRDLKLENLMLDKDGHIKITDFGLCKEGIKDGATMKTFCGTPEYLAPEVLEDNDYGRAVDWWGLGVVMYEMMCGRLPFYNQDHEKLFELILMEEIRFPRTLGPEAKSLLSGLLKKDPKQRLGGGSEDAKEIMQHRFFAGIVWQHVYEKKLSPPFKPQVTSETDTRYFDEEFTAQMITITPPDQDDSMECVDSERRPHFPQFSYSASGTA
# T5: GST-?PH-PKBα[F472A], P31749
# T5 chain: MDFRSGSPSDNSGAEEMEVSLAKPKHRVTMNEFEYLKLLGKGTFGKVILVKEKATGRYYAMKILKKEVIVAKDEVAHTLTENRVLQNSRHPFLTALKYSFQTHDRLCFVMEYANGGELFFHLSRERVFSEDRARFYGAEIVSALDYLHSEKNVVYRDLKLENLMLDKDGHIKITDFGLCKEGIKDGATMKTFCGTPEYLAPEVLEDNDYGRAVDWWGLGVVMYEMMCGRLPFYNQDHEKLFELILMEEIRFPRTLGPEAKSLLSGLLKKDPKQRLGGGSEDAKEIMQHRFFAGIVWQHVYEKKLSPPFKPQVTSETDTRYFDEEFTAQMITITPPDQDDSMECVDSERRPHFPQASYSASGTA
# T6: GST-?PH-PKBα[S473D], P31749
# T6 chain: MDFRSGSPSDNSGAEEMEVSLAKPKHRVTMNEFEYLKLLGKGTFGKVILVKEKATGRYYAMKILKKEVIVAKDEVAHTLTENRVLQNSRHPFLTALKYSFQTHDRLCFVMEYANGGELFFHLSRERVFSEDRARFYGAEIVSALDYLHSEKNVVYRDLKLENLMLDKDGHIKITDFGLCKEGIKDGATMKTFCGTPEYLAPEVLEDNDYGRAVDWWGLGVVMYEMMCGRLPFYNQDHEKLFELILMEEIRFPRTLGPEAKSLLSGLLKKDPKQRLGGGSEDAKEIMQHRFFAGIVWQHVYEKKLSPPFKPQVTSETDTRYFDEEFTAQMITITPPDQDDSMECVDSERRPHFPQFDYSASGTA
# T7: PIFtide
# T7 chain: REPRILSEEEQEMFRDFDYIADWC
# T8: SGK1[F421A], O00141
# T8 chain: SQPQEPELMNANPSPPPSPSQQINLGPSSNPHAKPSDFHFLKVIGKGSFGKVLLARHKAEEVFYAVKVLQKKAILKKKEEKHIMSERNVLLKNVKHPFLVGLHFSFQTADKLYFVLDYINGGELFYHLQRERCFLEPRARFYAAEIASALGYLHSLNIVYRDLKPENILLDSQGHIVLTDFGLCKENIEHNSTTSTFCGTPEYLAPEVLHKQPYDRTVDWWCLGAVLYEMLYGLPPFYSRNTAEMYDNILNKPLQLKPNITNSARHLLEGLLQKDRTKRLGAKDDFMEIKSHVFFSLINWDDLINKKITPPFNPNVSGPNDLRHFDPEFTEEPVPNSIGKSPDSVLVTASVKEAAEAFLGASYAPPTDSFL
# Tests used:
# [1] = target: PDKtide
# Sequence of PDKtide (chain, as listed by the source): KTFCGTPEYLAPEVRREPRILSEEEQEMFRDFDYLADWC
# [2] = target: T1, T308tide
# [3] = target: 412E-p70 S6K-T2 (His-tagged, insect cells), P23443
# Sequence of 412E-p70 S6K-T2 (His-tagged, insect cells), P23443 (P23443 whole entry, looked up): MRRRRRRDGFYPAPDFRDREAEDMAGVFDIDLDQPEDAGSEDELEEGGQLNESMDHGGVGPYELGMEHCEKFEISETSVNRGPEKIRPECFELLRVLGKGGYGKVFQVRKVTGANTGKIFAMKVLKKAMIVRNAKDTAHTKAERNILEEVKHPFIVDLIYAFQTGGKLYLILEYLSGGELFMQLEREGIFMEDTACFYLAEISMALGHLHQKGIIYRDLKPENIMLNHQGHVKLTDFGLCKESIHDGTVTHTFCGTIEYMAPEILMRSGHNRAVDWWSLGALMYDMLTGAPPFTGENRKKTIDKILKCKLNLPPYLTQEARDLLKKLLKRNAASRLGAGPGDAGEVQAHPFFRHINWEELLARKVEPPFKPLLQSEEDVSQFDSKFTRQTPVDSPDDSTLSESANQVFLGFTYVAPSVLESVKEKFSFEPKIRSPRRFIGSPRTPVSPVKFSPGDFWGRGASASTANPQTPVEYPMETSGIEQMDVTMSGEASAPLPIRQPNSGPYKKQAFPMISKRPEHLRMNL
# [4] = target: T2, D978A-PIFtide
# [5] = target: GST-FL-PKB 473D, P31749
# Sequence of GST-FL-PKB 473D, P31749 (P31749 other isoform, or with tags, fused parts or gaps): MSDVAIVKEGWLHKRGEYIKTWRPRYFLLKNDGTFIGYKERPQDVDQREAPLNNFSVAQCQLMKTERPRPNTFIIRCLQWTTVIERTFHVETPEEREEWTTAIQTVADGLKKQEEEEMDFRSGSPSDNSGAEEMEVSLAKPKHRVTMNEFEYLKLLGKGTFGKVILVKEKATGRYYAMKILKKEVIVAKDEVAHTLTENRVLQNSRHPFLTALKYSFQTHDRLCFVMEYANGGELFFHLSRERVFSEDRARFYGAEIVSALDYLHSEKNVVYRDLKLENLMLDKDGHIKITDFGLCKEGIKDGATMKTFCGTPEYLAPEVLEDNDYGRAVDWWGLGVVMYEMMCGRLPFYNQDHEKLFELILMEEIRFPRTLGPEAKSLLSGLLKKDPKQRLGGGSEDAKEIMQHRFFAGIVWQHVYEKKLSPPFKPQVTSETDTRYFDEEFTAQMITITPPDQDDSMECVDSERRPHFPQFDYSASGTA
# [6] = target: GST-FL-PKB, P31749
# [7] = target: GST-PKBα[F472A], P31749
# Sequence of GST-PKBα[F472A], P31749 (P31749 whole entry F472A): as the sequence (P31749 other isoform, or with tags, fused parts or gaps) above, with F472A, D473S counted along it
# [8] = target: GST-S6K1-T2[F411A], P23443
# Sequence of GST-S6K1-T2[F411A], P23443 (P23443 1-421 F411A): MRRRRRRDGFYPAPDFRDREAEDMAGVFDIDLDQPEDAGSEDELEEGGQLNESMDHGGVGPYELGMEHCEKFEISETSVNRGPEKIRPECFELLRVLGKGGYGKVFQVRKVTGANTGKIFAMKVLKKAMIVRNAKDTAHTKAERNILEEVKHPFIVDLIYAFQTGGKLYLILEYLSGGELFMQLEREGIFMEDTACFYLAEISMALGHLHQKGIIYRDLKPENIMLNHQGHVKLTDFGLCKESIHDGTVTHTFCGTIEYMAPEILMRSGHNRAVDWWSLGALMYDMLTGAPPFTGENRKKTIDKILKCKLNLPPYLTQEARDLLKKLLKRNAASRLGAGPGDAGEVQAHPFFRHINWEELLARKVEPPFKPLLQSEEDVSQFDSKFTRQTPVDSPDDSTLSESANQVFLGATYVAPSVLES
# [9] = target: T3, GST-SGK1 (lacking the N-terminal 60 …)
# [10] = target: GST-SGK1[T422D] (lacking the N-terminal 60 amino acids), O00141
# [11] = target: T4, GST-?PH-PKBα, P31749
# [12] = target: T5, GST-?PH-PKBα[F472A], P31749
# [13] = target: T6, GST-?PH-PKBα[S473D], P31749
# [14] = target: T7, PIFtide
# [15] = target: T8, SGK1[F421A], O00141
# [16] = target: p70 S6K-T2 (His-tagged, insect cells), P23443
# Sequence of p70 S6K-T2 (His-tagged, insect cells), P23443 (P23443 whole entry, looked up): as the sequence (P23443 whole entry, looked up) above
protein,measurement,setting,value
His-PDK1 (protein) DGTAAEPRPGAGSLQHAQPPPQPRKKRPEDFKFGKILGEGSFSTVVLARELATSREYAIKILEKRHIIKENKVPYVTRERDVMSRLDHPFFVKLYFTFQDDEKLYFGLSYAKNGELLKYIRKIGSFDETCTRFYTAEIVSALEYLHGKGIIHRDLKPENILLNEDMHIQITDFGTAKVLSPESKQARANSFVGTAQYVSPELLTEKSACKSSDLWALGCIIYQLVAGLPPFRAGNEYLIFQKIIKLEYDFPEKFFPKARDLVEKLLVLDATKRLGCEEMEGYGPLKAHPFFESVTWENLHQQTPPKLTAYLPAMSEDDEDCYGNYDNLLSQFGCMQVSSSSSSHSLSASDTGLPQRSGSNIEQYIHDLDSNSFELDLQFSEDEKRLLLEKQAGGNPWHQFVENNLILKMGPVDKRKGLFARRRQLLLTEGPHLYYVDPVNKVLKGEIPWSQELRPEAKNFKTFFVHTPNRTYYLMDPSGNAHKWCRKIQEVWRQRYQSHPDAAVQ,"rate of phosphorylation at 100 µM, against T308tide",[1],phosphorylated at a rate over 100-fold greater than that using T308tide
same,Km of PDK1 for the peptide substrate,[2],the Km was very high (>10 mM)
GST-PDK1 (wild type) (protein) MARTTSQLYDAVPIQSSVVLCSCPSPSMVRTQTESSTPPGIPGGSRQGPAMDGTAAEPRPGAGSLQHAQPPPQPRKKRPEDFKFGKILGEGSFSTVVLARELATSREYAIKILEKRHIIKENKVPYVTRERDVMSRLDHPFFVKLYFTFQDDEKLYFGLSYAKNGELLKYIRKIGSFDETCTRFYTAEIVSALEYLHGKGIIHRDLKPENILLNEDMHIQITDFGTAKVLSPESKQARANSFVGTAQYVSPELLTEKSACKSSDLWALGCIIYQLVAGLPPFRAGNEYLIFQKIIKLEYDFPEKFFPKARDLVEKLLVLDATKRLGCEEMEGYGPLKAHPFFESVTWENLHQQTPPKLTAYLPAMSEDDEDCYGNYDNLLSQFGCMQVSSSSSSHSLSASDTGLPQRSGSNIEQYIHDLDSNSFELDLQFSEDEKRLLLEKQAGGNPWHQFVENNLILKMGPVDKRKGLFARRRQLLLTEGPHLYYVDPVNKVLKGEIPWSQELRPEAKNFKTFFVHTPNRTYYLMDPSGNAHKWCRKIQEVWRQRYQSHPDAAVQ,"relative phosphorylation of the substrate by PDK1-wt, +PIFtide (relative, PKB[S473D]=100)",[3],7.4
same,"relative phosphorylation of the substrate by PDK1-wt, no PIFtide (relative, PKB[S473D]=100)",[3],54
same,concentration needed to obtain 50% activation of PDK1 (T308tide as substrate),[4],1.1 µM for D978A-PIFtide
same,"relative phosphorylation of the substrate by PDK1-wt, +PIFtide (relative, PKB[S473D]=100)",[5],85.4
same,"relative phosphorylation of the substrate by PDK1-wt, no PIFtide (relative, PKB[S473D]=100)",[5],100
same,"relative phosphorylation of the substrate by PDK1-wt, +PIFtide (relative, PKB[S473D]=100)",[6],19.3
same,"relative phosphorylation of the substrate by PDK1-wt, no PIFtide (relative, PKB[S473D]=100)",[6],28
same,rate of phosphorylation by PDK1 compared to the wild type enzyme,[7],PKB[F472A] was phosphorylated at a similar rate to the wild type PKB
same,rate of phosphorylation by PDK1 compared to the wild type enzyme,[8],markedly reduced
same,"relative phosphorylation of the substrate by PDK1-wt, +PIFtide (relative, PKB[S473D]=100)",[9],3.8
same,"relative phosphorylation of the substrate by PDK1-wt, no PIFtide (relative, PKB[S473D]=100)",[9],8
same,"relative phosphorylation of the substrate by PDK1-wt, +PIFtide (relative, PKB[S473D]=100)",[10],9.6
same,"relative phosphorylation of the substrate by PDK1-wt, no PIFtide (relative, PKB[S473D]=100)",[10],71
same,"relative phosphorylation of the substrate by PDK1-wt, +PIFtide (relative, PKB[S473D]=100)",[11],0.25
same,"relative phosphorylation of the substrate by PDK1-wt, no PIFtide (relative, PKB[S473D]=100)",[11],0.4
same,rate of phosphorylation by PDK1 compared to the wild type enzyme,[12],markedly reduced
same,"relative phosphorylation of the substrate by PDK1-wt, +PIFtide (relative, PKB[S473D]=100)",[13],0.2
same,"relative phosphorylation of the substrate by PDK1-wt, no PIFtide (relative, PKB[S473D]=100)",[13],0.9
same,concentration needed to obtain 50% activation of PDK1 (T308tide as substrate),[14],0.14 µM for wt-PIFtide
same,phosphorylation of p70 S6K at Thr412 by PDK1 (T412-P immunoblot),[14],The 24 residue PIF peptide prevented PDK1 from phosphorylating the p70 S6K at Thr412
same,rate of phosphorylation by PDK1 compared to the wild type enzyme,[15],markedly reduced
same,"relative phosphorylation of the substrate by PDK1-wt, +PIFtide (relative, PKB[S473D]=100)",[16],0.58
same,"relative phosphorylation of the substrate by PDK1-wt, no PIFtide (relative, PKB[S473D]=100)",[16],10.4
GST-PDK1 L155E (protein) MARTTSQLYDAVPIQSSVVLCSCPSPSMVRTQTESSTPPGIPGGSRQGPAMDGTAAEPRPGAGSLQHAQPPPQPRKKRPEDFKFGKILGEGSFSTVVLARELATSREYAIKILEKRHIIKENKVPYVTRERDVMSRLDHPFFVKLYFTFQDDEKEYFGLSYAKNGELLKYIRKIGSFDETCTRFYTAEIVSALEYLHGKGIIHRDLKPENILLNEDMHIQITDFGTAKVLSPESKQARANSFVGTAQYVSPELLTEKSACKSSDLWALGCIIYQLVAGLPPFRAGNEYLIFQKIIKLEYDFPEKFFPKARDLVEKLLVLDATKRLGCEEMEGYGPLKAHPFFESVTWENLHQQTPPKLTAYLPAMSEDDEDCYGNYDNLLSQFGCMQVSSSSSSHSLSASDTGLPQRSGSNIEQYIHDLDSNSFELDLQFSEDEKRLLLEKQAGGNPWHQFVENNLILKMGPVDKRKGLFARRRQLLLTEGPHLYYVDPVNKVLKGEIPWSQELRPEAKNFKTFFVHTPNRTYYLMDPSGNAHKWCRKIQEVWRQRYQSHPDAAVQ,"relative phosphorylation of the substrate by PDK1-L155E, +PIFtide (relative, PKB[S473D]=100)",[3],0.108
same,"relative phosphorylation of the substrate by PDK1-L155E, no PIFtide (relative, PKB[S473D]=100)",[3],0.5
same,"relative phosphorylation of the substrate by PDK1-L155E, +PIFtide (relative, PKB[S473D]=100)",[5],162
same,"relative phosphorylation of the substrate by PDK1-L155E, no PIFtide (relative, PKB[S473D]=100)",[5],178
same,"relative phosphorylation of the substrate by PDK1-L155E, +PIFtide (relative, PKB[S473D]=100)",[6],35
same,"relative phosphorylation of the substrate by PDK1-L155E, no PIFtide (relative, PKB[S473D]=100)",[6],35
same,"relative phosphorylation of the substrate by PDK1-L155E, +PIFtide (relative, PKB[S473D]=100)",[9],2.4
same,"relative phosphorylation of the substrate by PDK1-L155E, no PIFtide (relative, PKB[S473D]=100)",[9],3.3
same,"relative phosphorylation of the substrate by PDK1-L155E, +PIFtide (relative, PKB[S473D]=100)",[10],3.4
same,"relative phosphorylation of the substrate by PDK1-L155E, no PIFtide (relative, PKB[S473D]=100)",[10],3.5
same,"relative phosphorylation of the substrate by PDK1-L155E, +PIFtide (relative, PKB[S473D]=100)",[11],0.25
same,"relative phosphorylation of the substrate by PDK1-L155E, no PIFtide (relative, PKB[S473D]=100)",[11],0.23
same,"relative phosphorylation of the substrate by PDK1-L155E, +PIFtide (relative, PKB[S473D]=100)",[13],0.15
same,"relative phosphorylation of the substrate by PDK1-L155E, no PIFtide (relative, PKB[S473D]=100)",[13],0.18
same,"relative phosphorylation of the substrate by PDK1-L155E, +PIFtide (relative, PKB[S473D]=100)",[16],0.27
same,"relative phosphorylation of the substrate by PDK1-L155E, no PIFtide (relative, PKB[S473D]=100)",[16],0.6
